Results from patent US20090297470.

Legend:
Diprotin A (Ile-Pro-Ile) = biological target: T1, Diprotin A (Ile-Pro-Ile)
T1 chain: IPI

[1] = biological target: recombinant SDF-1α (1-68), full length, 7.97 kDa

B1: CD26/dipeptidylpeptidase IV (DPP-IV), endogenous enzyme in heart lysates of wild type C57BL/6 mice (protein)
chain: MKTPWKVLLGLLGVAALVTIITVPIVLLSKDEAAADSRRTYSLADYLKSTFRVKSYSLWWVSDFEYLYKQENNILLLNAEHGNSSIFLENSTFESFGYHSVSPDRLFVLLEYNYVKQWRHSYTASYNIYDVNKRQLITEEKIPNNTQWITWSPEGHKLAYVWKNDIYVKVEPHLPSHRITSTGEENVIYNGITDWVYEEEVFGAYSALWWSPNNTFLAYAQFNDTGVPLIEYSFYSDESLQYPKTVWIPYPKAGAVNPTVKFFIVNIDSLSSSSSAAPIQIPAPASVARGDHYLCDVVWATEERISLQWLRRIQNYSVMAICDYDKINLTWNCPSEQQHVEMSTTGWVGRFRPAEPHFTSDGSSFYKIISDKDGYKHICHFPKDKKDCTFITKGAWEVISIEALTSDYLYYISNQYKEMPGGRNLYKIQLTDHTNVKCLSCDLNPERCQYYAVSFSKEAKYYQLGCWGPGLPLYTLHRSTDHKELRVLEDNSALDRMLQDVQMPSKKLDFIVLNETRFWYQMILPPHFDKSKKYPLLLDVYAGPCSQKADASFRLNWATYLASTENIIVASFDGRGSGYQGDKIMHAINRRLGTLEVEDQIEAARQFVKMGFVDSKRVAIWGWSYGGYVTSMVLGSGSGVFKCGIAVAPVSRWEYYDSVYTERYMGLPIPEDNLDHYRNSTVMSRAEHFKQVEYLLIHGTADDNVHFQQSAQISKALVDAGVDFQAMWYTDEDHGIASSTAHQHIYSHMSHFLQQCFSLH
proteolytic DPP-IV activity (H-Gly-Pro-AMC) in myocardium and serum 2 days after MI (Diprotin A (Ile-Pro-Ile)): Combined application of G-CSF and Diprotin A in wt mice ("G-CSF-DipA mice") lead to a decreased DPP-IV activity after MI only in the myocardium but not in the serum
mass spectrometry of recombinant SDF-1 incubated with heart lysates (cleavage product peak) [1]: lysates derived from wt animals also showed high abundance of a second peak at 7.748 kDa corresponding to N-terminal cleavage of SDF-1α by DPP-IV
